# Source: publication PMC6479716
# Biological target: AEDANS labelled N-ter hexahistidine tagged LMV VPg (Lettuce mosaic virus (isolate AF199))
# Test: fluorescence polarisation; steady state fluorescence anisotropy of AEDANS labelled His6 VPg* (300 nM) on addition of His6 eIF4E; 25 °C, 20 mM HEPES pH 7.5, 0.25 mM NaCl, 1 mM DTT
binder,measurement,value
N-ter hexahistidine tagged lettuce eIF4E (natural protein) MVEEIMKSEEQKLIDVNKHRGVRSDGEEDEQLEEGEIVGGDADTLSSSSSSRPGTAIAQHPLEHSWTFWFDTPSAKSKQVAWGSSMRPIYTFSSVEEFWSLYNNIHRPSKLAQGADFYCFKNKIEPKWEDPVCANGGKWTMTFTKAKSDTCWLYTLLAMIGEQFDHGDDICGAVVNVRARQEKIALWTKNAANESAQLSIGKQWKEFIDYNDTIGFIFHEDAKTLDRSAKNKYTV,Kd,63 nM
